The results in this text go back to patent EP0853661B1 (CAMBRIDGE ANTIBODY TECHNOLOGY LIMITED, dated 2000).

Assay [1] has as its target T1, human TGFβ2 (transforming growth factor beta 2) (human, UniProt P61812 303-414).
T1 construct: mature; Active dimer; also called TGFbeta2; rhTGF β2
T1 sequence (looked up): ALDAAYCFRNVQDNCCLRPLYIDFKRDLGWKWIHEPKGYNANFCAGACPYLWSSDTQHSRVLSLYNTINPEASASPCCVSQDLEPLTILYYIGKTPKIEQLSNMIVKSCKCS
Nature of the assay: BIACore, scFv (35µl) injected over amine-coupled antigen on CM5 chip; chip as printed.

Assay [2] addresses T2, human TGFβ1 (transforming growth factor beta 1) (human, UniProt P01137 279-390).
T2 construct: mature; Active dimer; also called TGFbeta1
The assay is described as above.

In assay [3] the target is T1, human TGFβ2 (transforming growth factor …). Nature of the assay: cell-based or functional assay.
Assay [4] has the same target. The assay is described as follows: cell-based or functional assay. This is another data set of the same source.
Assay [5] addresses T3, TGFβ3 (transforming growth factor beta 3) (UniProt P10600 301-412).
T3 construct: mature; also called TGFbeta3
T3 sequence (looked up): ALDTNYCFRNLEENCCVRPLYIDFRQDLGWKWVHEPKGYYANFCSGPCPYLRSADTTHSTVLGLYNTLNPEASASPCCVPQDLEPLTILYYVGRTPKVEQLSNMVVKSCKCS
The assay is described as follows: A549 cell radioreceptor assay.

The target of assay [6] is T3, TGFβ3 (transforming growth factor beta …). The assay is described as follows: BIAcore 2000, ratio of dissociation constants.
Assay [7] has the same target. Nature of the assay: A549 cell radioreceptor assay, inhibition of 125I-TGFβ3 binding to receptors.
The target is the same in assay [8]. The assay is described as follows: BIAcore 2000, antigen immobilised, antibody as analyte. On the technique in general: In SPR one partner is held on a chip, and binding of the other changes the refractive index at the surface.
Assay [9] has the same target. The assay is described as follows: BIAcore 2000, antigen immobilised, antibody as analyte; koff divided by kon.
Assay [10] shares this target. Nature of the assay: cell-based or functional assay.
Assay [11] has the same target. The assay is described as follows: cell-based or functional assay. This is another data set of the same source.
The target in assay [12] is T1, human TGFβ2 (transforming growth factor …). Nature of the assay: BIACore, IgG4 over TGFβ2-coated chip.
Assay [13] concerns the target T2, human TGFβ1 (transforming growth factor …). Nature of the assay: specificity ELISA, TGFβ isoforms coated at 0.2µg/ml. In general terms: ELISA stands for enzyme-linked immunosorbent assay.

Numbering of substitutions follows the chain as printed.

In general, IC50 refers to the concentration at which inhibition is half-maximal. Low readings indicate greater potency, high ones weaker potency. As usually defined, the koff is a measure of how fast the partners let go of each other. A lower koff goes with a long-lived complex. As usually defined, the kon is the rate constant with which the complex forms. Read a low kon as slow association. The term Kd denotes the concentration at which binding is half-saturated. A higher Kd goes with weaker binding.

T2 sequence (P01137 279-390 limits assumed): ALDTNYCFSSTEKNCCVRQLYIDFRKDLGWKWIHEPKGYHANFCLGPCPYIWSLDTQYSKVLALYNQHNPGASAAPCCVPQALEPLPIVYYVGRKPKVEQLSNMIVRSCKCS

B1: 6H1 scFv (scFv)
chain: EVQLVESGGGVVQPGRSLRLSCAASGFTFSSYGMHWVRQAPGKGLEWVAVIWYDGSNKYYADSVKGRFTISRDNSKNTLYLQMDSLRAEDTAVYYCGRTLESSLWGQGTLVTVSSGGGGSGGGGSGGGGSDVVMTQSPSSLSASVGDRVTITCRASQGISNYLAWYQQKPGKAPKLLIYKASTLESGVPSRFSGSGSGTEFTLTISSLQPEDFATYYCQQSYSTPRTFGQGTKVDIKR
For B1, the “total increase in resonance units (RU)” value in assay [1] turned out to be 77 RU; in assay [2], 686 RU. Also, the “I.C.50 in TF1 assay (neutralisation of the TGFβ2 inhibition of IL-5 induced TF1 cell proliferation)” value in assay [3] is 1.5 nM.

B2: 6B1 IgG4 (antibody, V domains shown)
VH: EVQLVESGGGVVQPGRSLRLSCAASGFTFSSYGMHWVRQAPGKGLEWVAVIWYDGSNKYYADSVKGRFTISRDNSKNTLYLQMDSLRAEDTAVYYCGRTLESSLWGQGTLVTVSS
VL: SSELTQDPAVSVALGQTVRITCQGDSLRSYYASWYQQKPGQAPVLVIYGKNNRPSGIPDRFSGSSSGNTASLTITGAQAEDEADYYCNSRDSSSTHRGVFGGGTKLTVLG
Take B2: in assay [4], the “IC50 in the TF1 neutralisation assay (6B1 IgG4 from cell line 5D8-2A6)” value was 1.8 nM. Also, in [5], the “cross-reactivity with TGFβ3 relative to TGFβ2” value is less than 2%. The “cross-reactivity with TGFβ3 (ratio of dissociation constants for TGFβ3 and TGFβ2)” value in assay [6] is 9%. In [7], the IC50 amounted to 4 nM. Besides, in [8], the koff was found to be 0.00045 s⁻¹ and the kon is 45000 M⁻¹ s⁻¹. The molecule also showed a Kd in assay [9] of 10 nM. Besides, the “TF1 cell proliferation assay IC50 (nM IgG)” value in assay [10] stood at 11 nM. In assay [3], the “I.C.50 in TF1 assay (neutralisation of the TGFβ2 inhibition of IL-5 induced TF1 cell proliferation)” value stood at 11 nM.

B3: 6A5 IgG4 (antibody, V domains shown)
VH: B2 VH
VL: SSELTQDPAVSVALGQTVRITCQGDSLRSYYASWYQQKPGQAPVLVIYGKNNRPSGIPDRFAGSNSGNTASLTITGAQAEDEADYYCSSRDSSGNHVVFGGGTKLTVLG
With B3, the “I.C.50 in TF1 assay (neutralisation of the TGFβ2 inhibition of IL-5 induced TF1 cell proliferation)” value in [3] was found to be 150 nM.

B4: 6H1 IgG4 (antibody, V domains shown)
VH: B2 VH
VL: DVVMTQSPSSLSASVGDRVTITCRASQGISNYLAWYQQKPGKAPKLLIYKASTLESGVPSRFSGSGSGTEFTLTISSLQPEDFATYYCQQSYSTPRTFGQGTKVDIKR
As for B4, in assay [4], the “IC50 in the TF1 neutralisation assay (6H1 IgG4 from a CHO cell line)” value came to 15 nM and the “IC50 of neutralisation of TGFβ2 in the TF1 cell proliferation assay” value is 12 nM. Moreover, the “IC50 of neutralisation of TGFβ3 in the TF1 cell proliferation assay” value in [11] was roughly 20 nM. The “I.C.50 in TF1 assay (neutralisation of the TGFβ2 inhibition of IL-5 induced TF1 cell proliferation)” value in [3] is 100 nM.

B5: 27C1/10A6 IgG4 (antibody, V domains shown)
VH: QVQLVESGGGVVQPGRSLRLSCAASGLTFSSYDMHWVRQPPAKGLEWVAVISYDGSSKYYADSVKGRFTISRDNSKNTLYLQMNSLRAEDTAVYYCARTGEYSGYDTSGVELWGQGTTVTVSS
VL: B2 VL with S1H, S2V, E3I, R28K, K50E, N52S, S94G, R97L, G98E
Regarding B5, the “fold higher dissociation constant for TGFβ2 compared to TGFβ1” value in assay [12] is no less than 10 fold.

B6: 6B1 scFv (scFv)
chain: EVQLVESGGGVVQPGRSLRLSCAASGFTFSSYGMHWVRQAPGKGLEWVAVIWYDGSNKYYADSVKGRFTISRDNSKNTLYLQMDSLRAEDTAVYYCGRTLESSLWGQGTLVTVSSGGGGSGGGGSGGGGSSSELTQDPAVSVALGQTVRITCQGDSLRSYYASWYQQKPGQAPVLVIYGKNNRPSGIPDRFSGSSSGNTASLTITGAQAEDEADYYCNSRDSSSTHRGVFGGGTKLTVLG
Regarding B6, the “I.C.50 in TF1 assay (neutralisation of the TGFβ2 inhibition of IL-5 induced TF1 cell proliferation)” value in assay [3] came to 15 nM.

B7: 14F12 scFv (scFv)
chain: EIQLVESGGGVVQPGRSLRLSCAASGFTFSSYAMHWVRQAPAKGLEWVAVISYDGSNKYYADSVKGRFTISRDNSKNTLYLQMNSLRAEDTAVYYCARAGLETTWGQGTLVTVSSSGGGGGSGGGGSGGGGSSSELTQDPAVSVALGQTVRITCQGDSLRNYYANWYQQKPGQAPVLVIYGKNNRPSGIPDRFSGSSSGNTASLTITGARAEDEGVYYCNSRDSSGAVFGGGTKLTVLG
As for B7, the “total increase in resonance units (RU)” value stood at 115 RU in [1] and 616 RU in assay [2]. For the same molecule, the “I.C.50 in TF1 assay (neutralisation of the TGFβ2 inhibition of IL-5 induced TF1 cell proliferation)” value in assay [3] was 90 nM.

B8: 10A6 scFv (scFv)
chain: QVQLVESGGGVVQPGRSLRLSCAASGFTFSSYGMHWVRQAPGKGLEWVAVISYDGSNKYYADSVKGRFTISRDNSKNTLYLQMNSLRAEDTAVYYCAKTGEYSGYDSSGVDVWGKGTTVTVSSGGGGSGGGGSGGGGSHVILTQDPAVSVALGQTVRITCQGDSLKSYYASWYQQKPGQAPVLVIYGENSRPSGIPDRFSGSSSGNTASLTITGAQAEDEADYYCNSRDSSGTHLEVFGGGTKLTVLG
With B8, the “fold ELISA signal on TGFβ1 against the signal on TGFβ2 and TGFβ3” value in assay [13] was no less than 5 fold.

B9: 6A5 scFv (scFv)
chain: EVQLVESGGGVVQPGRSLRLSCAASGFTFSSYGMHWVRQAPGKGLEWVAVIWYDGSNKYYADSVKGRFTISRDNSKNTLYLQMDSLRAEDTAVYYCGRTLESSLWGQGTLVTVSSGGGGSGGGGSGGGGSSSELTQDPAVSVALGQTVRITCQGDSLRSYYASWYQQKPGQAPVLVIYGKNNRPSGIPDRFAGSNSGNTASLTITGAQAEDEADYYCSSRDSSGNHVVFGGGTKLTVLG
With B9, the “total increase in resonance units (RU)” value in assay [1] came out at 71 RU; in [2], 480 RU. Besides, the “I.C.50 in TF1 assay (neutralisation of the TGFβ2 inhibition of IL-5 induced TF1 cell proliferation)” value in assay [3] was 8 nM.
